Experimental data as given in the nanobody polyreactivity screen of Harvey et al. (2022).

Experiment: yeast display, Sf9 membrane polyspecificity reagent, FACS + sequencing; frameworks hold sequencing errors
Summary of the method: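 A nanobody's polyreactivity label depends on the gate it was sorted from. Yeast display cells were stained with 10% biotinylated, detergent-solubilized Sf9 membrane reagent for 1 hour at 4 °C, enriched on streptavidin microbeads and sorted by FACS. The low and high (top ~1%) gates were set on anti-HA fluorescence for expression and streptavidin fluorescence for reagent binding.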

Row | Sequence | polyreactivity (PSR sort gate)
1 | QVQLVESGGGLVQAGGSLRLSCAASGSTFKRYAMGWYRQAPGKDRELVASISSGGSPNYADSVKGRFTISRDNAKNTVYLQMNSLKPEDTAVYYCAVSYRSFRYFWERYSSWGQGTQVTVSS | high polyreactivity
2 | QVQLQESGGGLVHACGSLRPSCAASGSISDSWTMSWYRQAPGKEREFVAGITWGGTTNYADSVKGRFTISRDNAKNTVYLQMNSLKPEDSAVYYCNARQRTYYRTHRIRHKGNGYWGQGTQVTVSS | low polyreactivity
3 | QVQLVESGGGLVQAGGSLRLSCAASGLIFLYNAMGWYRQAPGKERELVAAISSGGGRTYYADSVKGRFTISRDNAKNTVYLQMNSLKPEDTAVYYCNVASYAKKRWTMDYWGQGTQVTVSS | high polyreactivity
4 | QVQLVESGGGLVQAGGSLRLSCAASGLIFSQNAMGWYRQAPGKERELVARITLSGTSTYYADSVKGRFTISRDNAKNTVYLQMNSLKPEDTAVYYCNTRSYSYYVPYRYDYWGQGTQVTVSS | high polyreactivity
5 | QVQLVESGGGLVQAGGSLRLSCAASGSIFYANAMGWYRQAPRKERELVAAISWSGGRTYYADSVKGRFTISRDNAKNTVYLQMISLKPEDTAVYFCAAVTRGLRFVYWGQGTQVTVSS | high polyreactivity
6 | QVQLVESGGGLVQAGGSLRLSCAASGSTFPAYAMGWYRQAPGKERELVAAITRGGSTNYADSEKGRFTISRDNAKNTVYLQMNSLKPEDTAVYYCAADKRYWWRYNYWASRSRGESWGQGTQVTVSS | high polyreactivity
7 | QVQLVESGGGLVQAGGSLRLSCDASGSTFRHYAMGWYRQAPGKERELVAAISSTGGSTYYADSVKGRFTISRDNAKNTVYLQMNSLKPEDTAVSYCAARRLYWGQGTQVTVSS | high polyreactivity
8 | QVQLLESGGGLVQAGRSLRLSCAASGSIFRSYAMGWSRQAPGKERELVAAISRRGGSTYYADSVKGRFTISRDNAKNTVYLQMNSLKPEDTAVYYCAADRTGPYDYWGQGTQVTVSS | high polyreactivity
9 | QVQLVESGGGLVQAGGSLRLSCAASGRTFGWDAMGWYRQAPGKERELVAAINNSGDITYYADSVKGRFTISRDNAKNTVYLQMNSLKPEDTAVYYCAATAGYYGYPSEYDYWGQGTQVTVSS | low polyreactivity
10 | QVQLVESGGGLVQAGGSLRLSCAASGFIFTLYAMGWYRQAPGKERELVADISFNSGNTYYADSVKGRFTISRDNAKNTVYLQMNSLIPEDTAVYYCAVDLYFVGDVYEGYLGGDYLGQGTQVTVSS | low polyreactivity
11 | QVQLVESGGGLVQAGGRLRLSCAASGIRSYRNGMGWYRQAPGKERELVASISKRADSTYYADSVKGRFTISRDNAKITVYLQMNSLKPEETAVYYCYVVSKVIRGLSGDGYWGQGTQGTVSS | high polyreactivity
12 | QVQLVESGGGLVQAGGSLRLSCAASGFILWPYAMGWYRQEPGKERELVAAITTGGSTNYADSVKGRFTISRDNAKNTVYLQMNSLKPEDTAVYYCAKGYYFGYYEFDYWGQGTQVTVSS | high polyreactivity
13 | QVQLVESGGGLVQAGGSLRLSSAASGITFRRYAMGWYRQAPGKERELVASITSGGSTNYADSVKGRFTISRDNAKYTVYLQMNSLKPDDTAVYYCAADSRWGMDYWGQGTQVTVSS | high polyreactivity
14 | QVQLVESGGGLVQAGGSLRLSCAASGRTFYYYAMGWYRQAPGKERELVAAISRGGGSTYYADSVKGRFTISRDNAKNTVYLQMNSLKPEDTAVYSWNKVYSTSSYDYWGQGTQVTVSS | high polyreactivity
15 | QVHLVESGGGLVQAGGSLRLSCAASGSNFVGNAMGWYRQAPGKERELVATISNSGGRTYYADSVKGRFTISRDNAKNTVYLQMNSLKPEDTAVYYCAADHPAFGPGYSFDFWGQGTQVTVSS | low polyreactivity
16 | QVQLVESGGGLVQAGGSLRLSCAASGRTFAVNAMGWYRQAPGKEREFVARISTRGGGTYYADSVKGRFTISRDNAKNTVYLQMNSLKPEDTAVYYCNAGRTRNYYYYPMDYWGQGTQVTVSS | high polyreactivity
17 | QVQLVESGGGLVQAGGSLRLSCAASGIIFYIYAMGWYRQAPGKERELVAAISSGGNTYYADSVKGRFTISRDNAKNTVYLQMNSLKPEDTAVYYCAAYSRKVSFQYRYDYWGQGTQVTVSS | high polyreactivity
